The target of experiment [1] is T1, XQ2 (macrocyclic (cyclic) peptide). Put plainly: SPR. In general terms: In SPR one partner is held on a chip, and binding of the other changes the refractive index at the surface.
Experiment [2] concerns the target T1, XQ2. The experiment can be described thus: MST; 2 M (NH4)2SO4.

B1: N-terminally truncated human cGAS (hcGAS-ΔN, residues 147–522) (domain or fragment)
chain: PVSAPILVRRDAAPGASKLRAVLEKLKLSRDDISTAAGMVKGVVDHLLLRLKCDSAFRGVGLLNTGSYYEHVKISAPNEFDVMFKLEVPRIQLEEYSNTRAYYFVKFKRNPKENPLSQFLEGEILSASKMLSKFRKIIKEEINDIKDTDVIMKRKRGGSPAVTLLISEKISVDITLALESKSSWPASTQEGLRIQNWLSAKVRKQLRLKPFYLVPKHAKEGNGFQEETWRLSFSHIEKEILNNHGKSKTCCENKEEKCCRKDCLKLMKYLLEQLKERFKDKKHLDKFSSYHVKTAFFHVCTQNPQDSQWDRKDLGLCFDNCVTYFLQCLRTEKLENYFIPEFNLFSSNLIDKRSKEFLTKQIEYERNNEFPVFDEF
Consider B1, for which the Kd (as a rule, the constant that tells how readily two partners part at equilibrium) with XQ2 [1] is 86.5 µM.

B2: fluorescent labeled hcGAS (enzyme)
chain: MQPWHGKAMQRASEAGATAPKASARNARGAPMDPTESPAAPEAALPKAGKFGPARKSGSRQKKSAPDTQERPPVRATGARAKKAPQRAQDTQPSDATSAPGAEGLEPPAAREPALSRAGSCRQRGARCSTKPRPPPGPWDVPSPGLPVSAPILVRRDAAPGASKLRAVLEKLKLSRDDISTAAGMVKGVVDHLLLRLKCDSAFRGVGLLNTGSYYEHVKISAPNEFDVMFKLEVPRIQLEEYSNTRAYYFVKFKRNPKENPLSQFLEGEILSASKMLSKFRKIIKEEINDIKDTDVIMKRKRGGSPAVTLLISEKISVDITLALESKSSWPASTQEGLRIQNWLSAKVRKQLRLKPFYLVPKHAKEGNGFQEETWRLSFSHIEKEILNNHGKSKTCCENKEEKCCRKDCLKLMKYLLEQLKERFKDKKHLDKFSSYHVKTAFFHVCTQNPQDSQWDRKDLGLCFDNCVTYFLQCLRTEKLENYFIPEFNLFSSNLIDKRSKEFLTKQIEYERNNEFPVFDEF
modifications: fluorescent label (dye and site not stated)
Turning to B2, binding in the experiment with XQ2 [2] was put at a Kd of 1.8 µM.

Values taken from publication PMC10545747 (2023).
